{"source": "patent US11397178B2", "about": "“Method of predicting progression of idiopathic pulmonary fibrosis and monitoring of therapeutic efficacy” (Cedars-Sinai Medical Center, priority 2016, dated 2022)", "molecules": {"B1": {"name": "KB004: afucosylated anti-EphA3 mAb supplied by Kalobios; targets EphA3+ cells via antibody-dependent cell-mediated cytotoxicity (ADCC) (antibody, chains of the INN, looked up, V domains shown)", "VH": "QVQLVQSGAEVKKPGASVKVSCKASGYTFTGYWMNWVRQAPGQGLEWMGDIYPGSGNTNYDEKFQGRVTMTRDTSISTAYMELSRLRSDDTAVYYCARGGYYEDFDSWGQGTTVTVSS", "VL": "DIQMTQSPSFLSASVGDRVTITCRASQGIISYLAWYQQKPEKAPKRLIYAASSLQSGVPSRFSGSGSGTEFTLTISSLQPEDFATYYCGQYANYPYTFGQGTKLEIK"}}, "tested_on": "CCR10+ EphA3+ cells", "assay": "Humanized NSG mouse model of IPF: KB004 / KB243 mAb treatment (hydroxyproline, Masson's trichrome, flow cytometry)", "format": "in vivo, human IPF cells in NSG mice", "description": "Six to eight-week old, female, pathogen free NOD Cg-Prkdc^SCID IL2rg^Tm1wil Szi (NSG) or NOD.Cg-Prkdc^SCID IL2rg^tm1Wil Tg(CAG-EGFP) 10sb/SzJ (NSG-GFP) were purchased from Jackson Laboratories and housed in Cedars-Sinai Medical Center's high isolation animal rooms. NSG mice were allowed a minimum of one week to acclimate in the facility and then these mice either received nothing (i.e., non-humanized) 1×10^6 IPF cells by intravenous injection (i.e. humanized). In most in vivo experiments, the IPF cells used were removed from liquid N2 storage, rapidly thawed, and washed in serum-free medium prior to injection into NSG mice. […] […] Other groups of humanized NSG mice received either vehicle (i.e., solutol) or BIBF1120 (Cayman Chemicals) by oral gavage beginning at day 35 after IPF cell injection. Vehicle or drug was administered 5 days a week until day 63 after IPF cell injection. All NSG groups were monitored daily and mice were sacrificed if there is evidence for morbidity such as weight loss of more than 20%, loss of fur, paralysis and/or lack of responsiveness when handled.\nMurine lung cellular suspensions were generated using a mouse lung dissociation kit, C-tubes, and a GentleMacs dissociator (Miltenyi Biotech). Spleens were dissociated using a sterile rubber tip of 1 ml syringe plunger and 100 μm 50 ml tube filters (BD bioscience) as follows: isolated spleens were placed in 1 ml of sterile complete medium until all the samples were collected. Sterile 50 ml conical tube filters were placed on top of sterile 50 ml conical tubes and were equilibrated by pipetting 1 ml of calcium and magnesium free DPBS (DBPS; Cellgro) through the filters. Spleens were transferred to a sterile 50 ml filter, cellular suspensions were generated using a sterile rubber tip of a syringe plunger, and splenic material was flushed with 5 ml of DPBS. Lung and splenic cell suspensions were centrifuged and resuspended in 1 ml of RBC lysis buffer (Biolegend), incubated at room temperature for 1-2 min and then equilibrated by adding 25 ml of DPBS to each tube. Cells were centrifuged and resuspended in flow cytometric wash/staining buffer (DPBS+2% FBS) in the presence of human and mouse Fc receptor blocking antibodies (Biolegend). Cells were then stained with anti-human-CD45, -EpCAM and -CCR10 antibodies for 20 min at 4° C. Unstained, isotype controls, fluorescent minus one controls and staining in non-humanized murine lung and spleen suspensions were utilized to gate out any non-specific antibody binding and background fluorescence. CCR10 antibodies were validated via the enrichment for CCR10 transcripts in magnetically sorted CCR10^+ cells versus non-sorted normal and IPF explant cells (FIG. 35). Flow cytometric data were acquired within one week of staining using a LSR Frotessa (BD Biosciences) or MACSQuant 10 (Miltenyi Biotech) flow cytometers and data were analyzed using Flowjo software V10.2 (Treestar Inc.). The resulting gates from non-humanized NSG-GFP mice were used to identify human CD45-, EPCAM-, CCR10-, and PDGFRα-stained cells (FIGS. 36C & 21F).\nLung tissue was fixed in 10% NBF solution for 24 h and subsequently transferred into tissue cassettes and kept in a 70% ethanol solution for approximately 24 h, Lungs were then processed using routine histology techniques and stained using Masson's trichrome. A Zeiss Axio Observer Z1 microscope and the Zeiss Zen 2012 v 1.1.2.0 software (Zeiss) were used to obtain representative images.\nTotal lung hydroxyproline was analyzed. […] On the day of the assay, tissues were thawed and […] of distilled water (dH2O) was added to the tissues. Tissues were homogenized using a micro-sample homogenizer (Pro Scientific) as follows: the homogenizing tip was washed in 70% ethanol, then dH2O and then utilized to homogenize the tissues. The homogenizer was washed in dH2O between samples and a new batch of dH2O was utilized after 5 samples. […]", "key": {"[1]": {"details": "prophylactic, 5 mg/kg days 0 to 35, day 35, flow cytometry"}, "[2]": {"details": "treatment beginning at day 7, day 35"}}, "data": [{"molecule": "B1", "values": [{"measurement": "development of lung fibrosis", "setting": "prophylactic treatment over 35 days", "result": "completely prevented"}, {"measurement": "CCR10+ CD45+ cells in lungs, KB004 versus KB243", "setting": "[1]", "result": "significant reduction"}, {"measurement": "CCR10+ Lin- cells in lungs, KB004 versus KB243", "setting": "[1]", "result": "significant reduction"}, {"measurement": "hydroxyproline in the lungs", "setting": "prophylactic, 5 mg/kg i.p. twice weekly days 0 to 35, day 35", "result": "significantly reduced"}, {"measurement": "numbers of CD45+ and Lin- CCR10+ cells and pulmonary fibrosis", "setting": "therapeutic treatment from days 35 to 63", "result": "failed to reduce"}, {"measurement": "histological appearance, KB243 versus KB004", "setting": "therapeutic, days 35 to 63", "result": "no significant difference"}, {"measurement": "lung hydroxyproline, KB243 versus KB004", "setting": "therapeutic, days 35 to 63", "result": "no significant difference"}, {"measurement": "CCR10+ cell numbers, KB243 versus KB004", "setting": "therapeutic, days 35 to 63, flow cytometry", "result": "no significant difference"}, {"measurement": "hydroxyproline in humanized NSG lungs relative to non-humanized mice", "setting": "therapeutic, starting at day 35, day 63", "result": "elevated"}, {"measurement": "histological interstitial consolidation, KB004 compared to KB243", "setting": "[2]", "result": "ameliorated"}, {"measurement": "number of CD45+ CCR10+ cells, KB004 compared to KB243", "setting": "[2]", "result": "significant reduction"}, {"measurement": "lung hydroxyproline, KB004 compared to KB243", "setting": "treatment beginning at day 7 after IPF cell injection, day 35", "result": "lower"}]}]}
